Experimental findings from article PMC7910438, “The TUTase URT1 connects decapping activators and prevents the accumulation of excessively deadenylated mRNAs to avoid siRNA biogenesis” (Nature Communications, 2021) are described below.

The experiment concerns the target T1, 6His-GST-URT1 (Arabidopsis thaliana, UniProt O64642 1-764).
T1 construct: URT1, Arabidopsis thaliana, AT2G45620, 764 amino acids; amplified from cDNA; Plasmids in Supplementary Data 7; expression and purification in Supplementary Methods; source: E. coli BL21 DE3, purified; not shown: 6His, N-terminal, kept; GST, N-terminal, kept
T1 sequence (looked up): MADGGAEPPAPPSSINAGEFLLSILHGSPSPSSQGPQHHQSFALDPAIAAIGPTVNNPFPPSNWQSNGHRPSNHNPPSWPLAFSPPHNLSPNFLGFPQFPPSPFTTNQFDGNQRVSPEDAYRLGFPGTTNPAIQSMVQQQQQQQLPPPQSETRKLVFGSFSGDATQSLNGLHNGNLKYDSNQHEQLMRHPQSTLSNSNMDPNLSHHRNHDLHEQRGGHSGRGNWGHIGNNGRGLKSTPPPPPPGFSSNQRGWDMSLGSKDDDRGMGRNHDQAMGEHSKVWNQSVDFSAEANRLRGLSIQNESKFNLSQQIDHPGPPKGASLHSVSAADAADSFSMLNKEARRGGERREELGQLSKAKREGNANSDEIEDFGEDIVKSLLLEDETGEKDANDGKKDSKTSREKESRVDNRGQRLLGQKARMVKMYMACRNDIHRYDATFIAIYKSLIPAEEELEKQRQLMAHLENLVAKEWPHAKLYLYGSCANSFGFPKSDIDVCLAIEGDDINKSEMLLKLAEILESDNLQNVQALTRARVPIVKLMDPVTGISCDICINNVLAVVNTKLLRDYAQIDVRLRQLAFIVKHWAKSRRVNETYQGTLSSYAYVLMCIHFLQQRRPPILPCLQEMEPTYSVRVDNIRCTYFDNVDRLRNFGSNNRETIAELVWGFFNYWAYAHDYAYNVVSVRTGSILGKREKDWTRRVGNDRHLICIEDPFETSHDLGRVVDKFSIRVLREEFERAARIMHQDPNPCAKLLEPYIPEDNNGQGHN
Nature of the experiment: pull-down; GST pull-down on glutathione sepharose; 10 pmol of each purified protein in 500 µl of 20 mM MOPS pH 7.2, 100 mM KCl, 15% glycerol, 0.1% Tween 20 with 100 ng/µl RNase A, 4 °C; SDS-PAGE, SYPRO Ruby. The conditions noted are these: both partners purified.

B1: 6His-MBP-DCP5 (natural protein, Arabidopsis thaliana, UniProt Q9C658 1-611, looked up)
chain: MAADNTGSKSSSAADSYVGSLISLTSKSEIRYEGILYNINTDESSIGLQNVRSFGTEGRKKDGPQVPPSDKVYEYILFRGTDIKDLQVKASPPVQPPASTINNDPAIIQSHYPSPMPTSGSLPSTASGSLPDISSHNGQPGQHGMGFQNAMPLYQPGGNLGSWGASPQPPMYWQGFYTPPPNGLPQLHQQSLIRPPHGLPMPNSLQQPLQYPNFNTPPPPTGSSSLQGSSLPEAPSSLFPFSTSSQMLAPSSLPFPGLPPVTLSSSLQSTLQSAPSPSLASEMAPPLLSNKAPITAPPTLPQDTNLLSFSLSTTRATEASTGLPLSNKPSVVTGPISPPQTTPLTSAPVAGVSSSISQDKPKPLLVTPGQLLQSGSSAVSLSPPSTNADKDVEVVQVSSSAGLEQSVPVTSEAQPPILPLPSSARPTQKPNGHSFPNHNGYRGRGRGRGRGAGRSHQVMKFTEDFDFTAMNEKFNKDEVWGHLGKSTTLDGDEDDDSPTVDEAELPKIEAKPVYNKDDFFDSLSSNTIDRESQNSRPRFSEQRKLDTETFGEFSRFRGGRGGRGGYGRNNGYSRGGYGGRGYGGYGGRGGGGGGYGYGGRGQGRGVSNRTT
notes: DECAPPING 5 (DCP5), Arabidopsis thaliana, AT1G26110; amplified from cDNA; source: E. coli BL21 DE3, purified; not shown: 6His, N-terminal, kept; MBP, N-terminal, kept
As to B1, the binding result is given as “binds”.
